We go through two substances from patent US20120171195A1.

The target of assay [1] is HLA-B*0801 (human) (UniProt P01889). Put plainly: Luminex beads; MAb 1/800; competitor IgG-free serum.
The target in assay [2] is HLA-B*5101 (human). The assay is described as above.
The target in another assay is HLA-B*3701 (human). Described as above.
Assay [3] addresses HLA-Cw*1402 (human) (UniProt P10321). Described as above.
For assay [4], the target named is HLA-B*5201 (human). The assay is described as above.
The target in assay [5] is HLA-B*5801 (human). Put plainly: Luminex beads; MAb 1/100; PBS only.
The target in a further assay is HLA-B*4006 (human) (UniProt P01889). Put plainly: Luminex beads; MAb 1/100; PBS only.
The next assay addresses HLA-Cw*1701 (human). Description: Luminex beads; MAb 1/100; PBS only.
Assay [6] addresses HLA-Cw*0702 (human) (UniProt P10321). Put plainly: Luminex beads; MAb 1/100; PBS only.
The target of assay [7] is HLA-B*4701 (human). Description: Luminex beads; MAb 1/100; PBS only.
Assay [8] has as its target HLA-B*5101 (human). Put plainly: Luminex beads; MAb 1/100; PBS only.
A further assay deals with HLA-Cw*0801 (human) (UniProt P10321). Description: Luminex beads; MAb 1/100; PBS only.
In assay [9] the target is HLA-Cw*0303 (human). Put plainly: Luminex beads; MAb 1/100; PBS only.
In the next assay the target is HLA-Cw*0501 (human). Put plainly: Luminex beads; MAb 1/100; PBS only.
A further assay concerns the target HLA-B*1511 (human) (UniProt P01889). Description: Luminex beads; MAb 1/100; PBS only.
Assay [10] deals with HLA-Cw*1402 (human) (UniProt P10321). Description: Luminex beads; MAb 1/100; PBS only.
A further assay concerns the target HLA-B*1401 (human) (UniProt P01889). Put plainly: Luminex beads; MAb 1/100; PBS only.
The target in the next assay is HLA-Cw*0602 (human) (UniProt P10321). Put plainly: Luminex beads; MAb 1/100; PBS only.
A further assay deals with HLA-B*4403 (human). Description: Luminex beads; MAb 1/100; PBS only.
For assay [11], the target named is HLA-B*4501 (human). Put plainly: Luminex beads; MAb 1/100; PBS only.
Assay [12] deals with HLA-Cw*0202 (human). Put plainly: Luminex beads; MAb 1/100; PBS only.
The target in the next assay is HLA-B*1801 (human). Put plainly: Luminex beads; MAb 1/100; PBS only.
Assay [13] has as its target HLA-B*5801 (human). Put plainly: Luminex beads; MAb 1/1600; PBS only.
For assay [14], the target named is HLA-B*0801 (human) (UniProt P01889). Put plainly: Luminex beads; MAb 1/1600; PBS only.
In assay [15] the target is HLA-B*4701 (human). Description: Luminex beads; MAb 1/1600; PBS only.
In assay [16] the target is HLA-B*5101 (human). Description: Luminex beads; MAb 1/1600; PBS only.
The target of the next assay is HLA-Cw*1502 (human). Description: Luminex beads; MAb 1/1600; PBS only.
For a further assay, the target named is HLA-Cw*1601 (human) (UniProt P10321). Put plainly: Luminex beads; MAb 1/1600; PBS only.
Assay [17] deals with HLA-Cw*0303 (human). Description: Luminex beads; MAb 1/1600; PBS only.
For the next assay, the target named is HLA-B*2708 (human) (UniProt P01889). Description: Luminex beads; MAb 1/1600; PBS only.
The target of another assay is HLA-B*4601 (human) (UniProt P01889). Put plainly: Luminex beads; MAb 1/1600; PBS only.
Assay [18] has as its target HLA-B*5201 (human). Description: Luminex beads; MAb 1/1600; PBS only.
For another assay, the target named is HLA-B*2705 (human) (UniProt P01889). Put plainly: Luminex beads; MAb 1/1600; PBS only.
Assay [19] has as its target HLA-B*4501 (human). Description: Luminex beads; MAb 1/1600; PBS only.
For a further assay, the target named is HLA-B*4101 (human) (UniProt P01889). Put plainly: Luminex beads; MAb 1/1600; PBS only.
Assay [20] concerns the target HLA-Cw*0202 (human). Put plainly: Luminex beads; MAb 1/1600; PBS only.
For another assay, the target named is HLA-B*8201 (human) (UniProt P01889). Put plainly: Luminex beads; MAb 1/1600; PBS only.
The target in another assay is HLA-Cw*0304 (human). Description: Luminex beads; MAb 1/1600; PBS only.
For assay [21], the target named is HLA-Cw*0702 (human) (UniProt P10321). Description: Luminex beads; MAb 1/1600; competitor rHLA-E.
The target in assay [22] is HLA-B*5101 (human). Description: Luminex beads; MAb 1/1600; competitor rHLA-E.
In another assay the target is HLA-B*1513 (human). Description: Luminex beads; MAb 1/1600; competitor rHLA-E.
Another assay concerns the target HLA-Cw*1802 (human) (UniProt P10321). Put plainly: Luminex beads; MAb 1/1600; competitor rHLA-E.
The target in another assay is HLA-B*4002 (human) (UniProt P01889). Put plainly: Luminex beads; MAb 1/1600; competitor rHLA-E.
Assay [23] deals with HLA-Cw*1402 (human) (UniProt P10321). Description: Luminex beads; MAb 1/1600; competitor rHLA-E.
Assay [24] concerns the target HLA-Cw*1502 (Cw15) (human). Put plainly: Luminex single-antigen beads; rank of MEM-E/02 reactivity among HLA-Ia alleles.
For another assay, the target named is HLA-B*1516 (B63) (human). The assay is described as above.
A further assay concerns the target HLA-B*1513 (B77) (human). Described as above.

Regarding “murine monoclonal antibody (MAb) MEM-E/02”, the MFI with HLA-B*0801 (human) [1] is 262 MFI; with HLA-B*5101 (human) [2] it was 483 MFI; with HLA-B*3701 (human), 784 MFI; with HLA-Cw*1402 (human) [3] it was 803 MFI; with HLA-B*5201 (human) [4], 609 MFI; with HLA-B*5801 (human) [5], 3990 MFI. In addition, the MFI with HLA-B*4006 (human) was 8590 MFI; with HLA-Cw*1701 (human), 3360 MFI; with HLA-Cw*0702 (human) [6], 3080 MFI; with HLA-B*4701 (human) [7] it was 3650 MFI; in the assay with HLA-B*5101 (human) [8] it was 2210 MFI; with HLA-Cw*0801 (human), 5890 MFI. In addition, the MFI came to 3200 MFI with HLA-Cw*0303 (human) [9]; 7180 MFI with HLA-Cw*0501 (human); 3430 MFI with HLA-B*1511 (human); 3470 MFI with HLA-Cw*1402 (human) [10]; 7340 MFI with HLA-B*1401 (human); 4040 MFI with HLA-Cw*0602 (human). Besides, the MFI with HLA-B*4403 (human) worked out at 3680 MFI; with HLA-B*4501 (human) [11] it was 4770 MFI; in the assay with HLA-Cw*0202 (human) [12] it was 3880 MFI; with HLA-B*1801 (human), 3540 MFI; with HLA-B*5801 (human) [13], 524 MFI; with HLA-B*0801 (human) [14], 262 MFI. The MFI with HLA-B*4701 (human) [15] came out at 804 MFI; with HLA-B*5101 (human) [16], 347 MFI; with HLA-Cw*1502 (human), 485 MFI; in the assay with HLA-Cw*1601 (human), 524 MFI; with HLA-Cw*0303 (human) [17] it was 530 MFI; in the assay with HLA-B*2708 (human), 396 MFI. The MFI turned out to be 375 MFI in the assay with HLA-B*4601 (human); 537 MFI in the assay with HLA-B*5201 (human) [18]; 191 MFI in the assay with HLA-B*2705 (human); 808 MFI with HLA-B*4501 (human) [19]; 645 MFI in the assay with HLA-B*4101 (human); 785 MFI in the assay with HLA-Cw*0202 (human) [20]. Also, the MFI in the assay with HLA-B*8201 (human) is 417 MFI; in the assay with HLA-Cw*0304 (human), 512 MFI; in the assay with HLA-Cw*0702 (human) [21] it was 88 MFI; with HLA-B*5101 (human) [22], 99 MFI; with HLA-B*1513 (human), 246 MFI; with HLA-Cw*1802 (human), 30 MFI. In addition, the MFI was found to be 196 MFI in the assay with HLA-B*4002 (human) and 48 MFI in the assay with HLA-Cw*1402 (human) [23].
As for murine monoclonal antibody MAb MEM-E/02, the MEM-E/02 Reactivity Rank is > 65 rank in [24], 43 rank with HLA-B*1516 (B63) (human) and 41 rank with HLA-B*1513 (B77) (human).
